Experimental data: paper PMC3991886, “Characterization of single-stranded DNA-binding proteins from the psychrophilic bacteria Desulfotalea psychrophila, Flavobacterium psychrophilum, Psychrobacter arcticus, Psychrobacter cryohalolentis, Psychromonas ingrahamii, Psychroflexus torquis, and Photobacterium profundum” (BMC Microbiology, 2014)

Assays:
[1] = biological target: Desulfotalea psychrophila single-stranded DNA-binding protein (Desulfotalea psychrophila); assay: cross-linking; 0.5% (v/v) glutaraldehyde, 15 min, 25°C, 10, 50 or 100 pmol SSB; quenched with 1 M Tris-HCl pH 8.0; SDS-PAGE (12%)
[2] = biological target: Desulfotalea psychrophila single-stranded DNA-binding protein (Desulfotalea psychrophila); assay: SEC; analytical gel filtration, Superdex 200 10/300 GL, 20 mM Tris-HCl pH 7.5, 150 mM NaCl, 10 mM EDTA, 0.5 ml/min; mass from a regression curve of standard proteins
[3] = biological target: Desulfotalea psychrophila single-stranded DNA-binding protein (Desulfotalea psychrophila); assay: sedimentation in glycerol gradient; linear 15 to 30% (w/v) glycerol gradients in 50 mM Tris-HCl pH 7.5, 0.5 M NaCl, 1 mM EDTA, 5 mM beta-mercaptoethanol; 50 ul of 300 uM SSB; SW 60 rotor, 46,000 rpm, 24 h, 4°C; fractions by SDS-PAGE; compared with standard proteins, EcoSSB and PhaSSB
[4] = biological target: Photobacterium profundum single-stranded DNA-binding protein (Photobacterium profundum) (UniProt Q6LM83); assay: cross-linking; 0.5% (v/v) glutaraldehyde, 15 min, 25°C, 10, 50 or 100 pmol SSB; quenched with 1 M Tris-HCl pH 8.0; SDS-PAGE (12%)
[5] = biological target: Photobacterium profundum single-stranded DNA-binding protein (Photobacterium profundum) (UniProt Q6LM83); assay: SEC; analytical gel filtration, Superdex 200 10/300 GL, 20 mM Tris-HCl pH 7.5, 150 mM NaCl, 10 mM EDTA, 0.5 ml/min; mass from a regression curve of standard proteins
[6] = biological target: Photobacterium profundum single-stranded DNA-binding protein (Photobacterium profundum) (UniProt Q6LM83); assay: sedimentation in glycerol gradient; linear 15 to 30% (w/v) glycerol gradients in 50 mM Tris-HCl pH 7.5, 0.5 M NaCl, 1 mM EDTA, 5 mM beta-mercaptoethanol; 50 ul of 300 uM SSB; SW 60 rotor, 46,000 rpm, 24 h, 4°C; fractions by SDS-PAGE; compared with standard proteins, EcoSSB and PhaSSB
[7] = biological target: Psychrobacter arcticus single-stranded DNA-binding protein (Psychrobacter arcticus) (UniProt Q4FR27); assay: cross-linking; 0.5% (v/v) glutaraldehyde, 15 min, 25°C, 10, 50 or 100 pmol SSB; quenched with 1 M Tris-HCl pH 8.0; SDS-PAGE (12%)
[8] = biological target: Psychrobacter arcticus single-stranded DNA-binding protein (Psychrobacter arcticus) (UniProt Q4FR27); assay: SEC; analytical gel filtration, Superdex 200 10/300 GL, 20 mM Tris-HCl pH 7.5, 150 mM NaCl, 10 mM EDTA, 0.5 ml/min; mass from a regression curve of standard proteins
[9] = biological target: Psychrobacter arcticus single-stranded DNA-binding protein (Psychrobacter arcticus) (UniProt Q4FR27); assay: sedimentation in glycerol gradient; linear 15 to 30% (w/v) glycerol gradients in 50 mM Tris-HCl pH 7.5, 0.5 M NaCl, 1 mM EDTA, 5 mM beta-mercaptoethanol; 50 ul of 300 uM SSB; SW 60 rotor, 46,000 rpm, 24 h, 4°C; fractions by SDS-PAGE; compared with standard proteins, EcoSSB and PhaSSB
[10] = biological target: Psychrobacter cryohalolentis single-stranded DNA-binding protein (Psychrobacter cryohalolentis); assay: cross-linking; 0.5% (v/v) glutaraldehyde, 15 min, 25°C, 10, 50 or 100 pmol SSB; quenched with 1 M Tris-HCl pH 8.0; SDS-PAGE (12%)
[11] = biological target: Psychrobacter cryohalolentis single-stranded DNA-binding protein (Psychrobacter cryohalolentis); assay: SEC; analytical gel filtration, Superdex 200 10/300 GL, 20 mM Tris-HCl pH 7.5, 150 mM NaCl, 10 mM EDTA, 0.5 ml/min; mass from a regression curve of standard proteins
[12] = biological target: Psychrobacter cryohalolentis single-stranded DNA-binding protein (Psychrobacter cryohalolentis); assay: sedimentation in glycerol gradient; linear 15 to 30% (w/v) glycerol gradients in 50 mM Tris-HCl pH 7.5, 0.5 M NaCl, 1 mM EDTA, 5 mM beta-mercaptoethanol; 50 ul of 300 uM SSB; SW 60 rotor, 46,000 rpm, 24 h, 4°C; fractions by SDS-PAGE; compared with standard proteins, EcoSSB and PhaSSB
[13] = biological target: Psychroflexus torquis single-stranded DNA-binding protein (Psychroflexus torquis); assay: cross-linking; 0.5% (v/v) glutaraldehyde, 15 min, 25°C, 10, 50 or 100 pmol SSB; quenched with 1 M Tris-HCl pH 8.0; SDS-PAGE (12%)
[14] = biological target: Psychroflexus torquis single-stranded DNA-binding protein (Psychroflexus torquis); assay: SEC; analytical gel filtration, Superdex 200 10/300 GL, 20 mM Tris-HCl pH 7.5, 150 mM NaCl, 10 mM EDTA, 0.5 ml/min; mass from a regression curve of standard proteins
[15] = biological target: Psychroflexus torquis single-stranded DNA-binding protein (Psychroflexus torquis); assay: sedimentation in glycerol gradient; linear 15 to 30% (w/v) glycerol gradients in 50 mM Tris-HCl pH 7.5, 0.5 M NaCl, 1 mM EDTA, 5 mM beta-mercaptoethanol; 50 ul of 300 uM SSB; SW 60 rotor, 46,000 rpm, 24 h, 4°C; fractions by SDS-PAGE; compared with standard proteins, EcoSSB and PhaSSB
[16] = biological target: Psychromonas ingrahamii single-stranded DNA-binding protein (Psychromonas ingrahamii); assay: cross-linking; 0.5% (v/v) glutaraldehyde, 15 min, 25°C, 10, 50 or 100 pmol SSB; quenched with 1 M Tris-HCl pH 8.0; SDS-PAGE (12%)
[17] = biological target: Psychromonas ingrahamii single-stranded DNA-binding protein (Psychromonas ingrahamii); assay: SEC; analytical gel filtration, Superdex 200 10/300 GL, 20 mM Tris-HCl pH 7.5, 150 mM NaCl, 10 mM EDTA, 0.5 ml/min; mass from a regression curve of standard proteins
[18] = biological target: Psychromonas ingrahamii single-stranded DNA-binding protein (Psychromonas ingrahamii); assay: sedimentation in glycerol gradient; linear 15 to 30% (w/v) glycerol gradients in 50 mM Tris-HCl pH 7.5, 0.5 M NaCl, 1 mM EDTA, 5 mM beta-mercaptoethanol; 50 ul of 300 uM SSB; SW 60 rotor, 46,000 rpm, 24 h, 4°C; fractions by SDS-PAGE; compared with standard proteins, EcoSSB and PhaSSB
[19] = test system: DpsSSB (Desulfotalea psychrophila LSv54 (DSM 12343)); assay: fluorescence titration; conditions: 2-300 mM NaCl, site size 31 ± 2 nt, EMSA: 20 mM Tris-HCl pH 8.0, 100 mM NaCl, 1 mM EDTA, 25 C, 2% agarose in TAE, fluorescence titration: 20 mM Tris-HCl pH 8.0, 1 mM EDTA, 2/100/300 mM NaCl
[20] = biological target: T1, PprSSB (Photobacterium profundum (LMG 19446), UniProt Q6LM83 5-187); assay: EMSA; complex I only; EMSA: 20 mM Tris-HCl pH 8.0, 100 mM NaCl, 1 mM EDTA, 25 C, 2% agarose in TAE; fluorescence titration: 20 mM Tris-HCl pH 8.0, 1 mM EDTA, 2/100/300 mM NaCl, 25 C; conditions: protein: recombinant; tags: none (stop codon in reverse primer); chain copies: 4; label: 5'-fluorescein
T1 sequence: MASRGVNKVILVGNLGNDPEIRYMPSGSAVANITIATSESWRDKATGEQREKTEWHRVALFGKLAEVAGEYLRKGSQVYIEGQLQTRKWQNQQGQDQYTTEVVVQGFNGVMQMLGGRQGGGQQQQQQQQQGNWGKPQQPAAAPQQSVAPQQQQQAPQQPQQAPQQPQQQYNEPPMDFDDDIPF

[21] = biological target: T2, PcrSSB (Psychrobacter cryohalolentis K5 (DSM …, UniProt Q1Q9B8 1-1+=G+2-219, internal_change)); assay: as above; conditions: protein: recombinant; tags: none (stop codon in reverse primer); chain copies: 4; label: 5'-fluorescein
T2 sequence: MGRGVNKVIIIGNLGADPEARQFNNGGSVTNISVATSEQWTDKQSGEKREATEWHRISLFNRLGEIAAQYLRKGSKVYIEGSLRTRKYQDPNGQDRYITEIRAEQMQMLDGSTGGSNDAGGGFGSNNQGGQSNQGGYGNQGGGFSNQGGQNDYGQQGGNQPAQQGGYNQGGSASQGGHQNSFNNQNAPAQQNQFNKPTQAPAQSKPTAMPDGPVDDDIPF

[22] = biological target: T3, PinSSB (Psychromonas ingrahamii 37 (DSM 17664), UniProt A1T012 1-1+=G+2-222, internal_change); assay: as above; conditions: protein: recombinant; tags: none (stop codon in reverse primer); chain copies: 4; label: 5'-fluorescein
T3 sequence: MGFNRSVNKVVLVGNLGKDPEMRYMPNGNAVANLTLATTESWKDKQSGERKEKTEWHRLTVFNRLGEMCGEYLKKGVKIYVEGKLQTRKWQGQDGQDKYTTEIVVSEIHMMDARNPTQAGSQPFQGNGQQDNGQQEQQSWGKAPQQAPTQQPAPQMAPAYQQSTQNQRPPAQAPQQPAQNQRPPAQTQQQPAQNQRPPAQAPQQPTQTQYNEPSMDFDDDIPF

[23] = biological target: T4, PtoSSB (Psychroflexus torquis ATCC 700755 (LMG …, UniProt K4IS14 1-151)); assay: as above; conditions: protein: recombinant; tags: none (stop codon in reverse primer); chain copies: 4; label: 5'-fluorescein
T4 sequence: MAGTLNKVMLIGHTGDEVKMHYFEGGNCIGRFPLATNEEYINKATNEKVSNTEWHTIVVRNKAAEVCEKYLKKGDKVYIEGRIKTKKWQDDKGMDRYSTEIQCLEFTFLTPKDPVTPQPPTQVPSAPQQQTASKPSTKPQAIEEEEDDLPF

[24] = biological target: the molecule itself; assay: cross-linking; 0.5% (v/v) glutaraldehyde, 15 min, 25°C, 10, 50 or 100 pmol SSB; quenched with 1 M Tris-HCl pH 8.0; SDS-PAGE (12%)
[25] = biological target: the molecule itself; assay: SEC; analytical gel filtration, Superdex 200 10/300 GL, 20 mM Tris-HCl pH 7.5, 150 mM NaCl, 10 mM EDTA, 0.5 ml/min; mass from a regression curve of standard proteins

## Desulfotalea psychrophila single-stranded DNA-binding protein (natural protein)
[1]
  stoichiometry N: 4
[2]
  stoichiometry N: 3.8 mass monomer
[3]
  stoichiometry N: 4

## Photobacterium profundum single-stranded DNA-binding protein (from UniProt Q6LM83 1-187) (natural protein)
[4]
  stoichiometry N: 4
[5]
  stoichiometry N (mass monomers): 4.2
[6]
  stoichiometry N: 4

## Psychrobacter arcticus single-stranded DNA-binding protein (from UniProt Q4FR27 1-213) (natural protein)
[7]
  stoichiometry N: 4
[8]
  stoichiometry N (mass monomers): 4.1
[9]
  stoichiometry N: 4

## Psychrobacter cryohalolentis single-stranded DNA-binding protein (natural protein)
[10]
  stoichiometry N: 4
[11]
  stoichiometry N (mass monomers): 4.1
[12]
  stoichiometry N: 4

## Psychroflexus torquis single-stranded DNA-binding protein (natural protein)
[13]
  stoichiometry N: 4
[14]
  stoichiometry N (mass monomers): 4.2
[15]
  stoichiometry N: 4

## Psychromonas ingrahamii single-stranded DNA-binding protein (natural protein)
[16]
  stoichiometry N: 4
[17]
  stoichiometry N (mass monomers): 4.1
[18]
  stoichiometry N: 4

## TTTTTTTTTTTTTTTTTTTTTTTTTTTTTTTTTTTTTTTTTTTTTTTTTTTTTTTTTTTTTTTTTTTTTTTTTTTT [(dT)76]
[19]
  binding signal (% Trp fluorescence quench at saturation): 93

## TTTTTTTTTTTTTTTTTTTTTTTTTTTTTTTTTTT (ssDNA) [(dT)35]
[20]
  binding result: binds
[21]
  binding result: binds
[22]
  binding result: binds
[23]
  binding result: binds

B1: Flavobacterium psychrophilum single-stranded DNA-binding protein (natural protein)
chain: MGNGTLNKVMLIGHLGEDIKMHYFDGGNCIGRFPLATNEIYINKSTNEKITSTEWHNVVVRNKAAEICEKYLSKGDKIYVEGRIKSRQWQAEDGTVKYTTEIQVTEFTFLNTKKDSEIVKTASEAPKTTSFDSTVENDLPF
notes: SSB of Flavobacterium psychrophilum JIP02/86 (LMG 13180), 140 amino acid residues including the N-terminal methionine, 15.9 kDa monomer; Cloned in pBAD/myc-HisA between NcoI and HindIII; the reverse primer carries the gene's stop codon, so the vector's C-terminal myc-His tag is probably not on the protein (surmised); The forward primer has two G that are not complementary to the gene, which adds …
[24]
  stoichiometry N: 4
[25]
  stoichiometry N: 4.4 mass monomer
